Reference: article PMC11213948 (2024)

Molecular target: G5_(1–1508)-FLAG
Assay: pull-down
Conditions: HEK293 cell lysates; western blot with anti-FLAG and anti-Xpress; n = 2; read off a plot

## Xpress-His G5_(1–1508) mutant A951E [not stated] / G5_(1–1508)-FLAG [not stated] chain 1 A951E
  response (relative intensity (PD/In)): 1.3
